Paper PMC12421958, “Dual regulatory role of cyclic di-GMP via the DgcY/HhmR complex in salt response of Halomonas hydrothermalis Y2” (mBio, 2025)

Key:
[1] = molecular target: T1, DgcY222–406; assay: microscale thermophoresis (MST); assay type: binding, Vreelandella hydrothermalis; settings: 25 °C, PBS-T; without HhmR; His-tag protein labelled with RED-tris-NTA
T1 construct: gene dgcY; GGDEF domain 222-406 only, TM and helical (HD) regions removed; pET24a, E. coli BL21(DE3), His-tag

[2] = molecular target: T2, DgcY202–406; assay: microscale thermophoresis (MST); assay type: binding, Vreelandella hydrothermalis; settings: 25 °C, PBS-T; without HhmR; His-tag protein labelled with RED-tris-NTA
T2 construct: gene dgcY; intracellular fragment 202-406 (helical domain 203-221 + GGDEF 222-406) of 406-residue protein, TM domain removed; pET24a, E. coli BL21(DE3), His-tag, labelled by RED-tris-NTA for MST

[3] = molecular target: DgcY_(202–406) (Halomonas hydrothermalis Y2)
[4] = molecular target: DgcY_(202–406) (Halomonas hydrothermalis Y2); remark: listed apart in the source
[5] = molecular target: DgcY_(202–406) (Halomonas hydrothermalis Y2); assay: MST; as a3, buffer containing 15 µM c-di-GMP
[6] = molecular target: DgcY_(202–406) (Halomonas hydrothermalis Y2); assay: MST; as a3, buffer containing 0.5 µM c-di-GMP
[7] = molecular target: DgcY_(202–406) (Halomonas hydrothermalis Y2); assay: MST; as a3, buffer containing 2.5 µM c-di-GMP
[8] = molecular target: DgcY_(202–406) (Halomonas hydrothermalis Y2); assay: MST; His-tagged protein labelled with Red-tris-NTA, ligand in twofold serial dilutions, PBS-T buffer, 25°C; no c-di-GMP

`Nc1nc2c(ncn2[C@@H]2O[C@@H]3COP(=O)(O)O[C@H]4[C@@H](O)[C@H](n5cnc6c(=O)[nH]c(N)nc65)O[C@@H]4COP(=O)(O)O[C@H]3[C@H]2O)c(=O)[nH]1` [c-di-GMP] showed a Kd [1] of 1170 µM and a Kd [2] of 53.2 µM.
HhmR (natural protein) gave a c-di-GMP made by 10 µM DgcY202-406 with 15 µM HhmR, HPLC, 37°C, 2 to 8 h (with HhmR 9.47 µM at 3 h and 25.50 µM at 8 h; without HhmR 12.41 and 31.38 µM) [3] of 25.5 µM, a c-di-GMP made by DgcY202-406 with HhmR and 15 µM added c-di-GMP, HPLC, 37°C, 8 h (38 µM without added c-di-GMP) [4] of 30 µM and a Kd [5] of 0.0341 µM. The Kd [6] was 0.105 µM, the Kd [7] was 0.0905 µM and the Kd [8] was 8.96 µM.
In the case of HhmR_(90–305) (domain or fragment), the Kd [8] is reported as 0.053 µM.
“HhmR_(90–305)^Q240D (domain or fragment)” gave a Kd [8] of 0.571 µM.
